Measurements published in the supplement of paper PMC12042874.
± gives the uncertainty stated by the source.

Assay: amyloid nucleation score (Sup35N fusion, yeast selection) (log enrichment); library NNK1; higher = more nucleation; inactive = no reads after selection
In short: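 Using DiMSum, nucleation scores were taken as the log enrichment of output over input reads, centred on the mode score of non-aggregating sequences. The input and output reads came from Illumina sequencing of plasmid inserts, with sequences under 100 input reads excluded. The yeast were psi-negative, expressed Sup35N fused to peptides of 20 random codons, were induced with 100 μM copper sulfate for 24 hours, and were grown 7 days at 30°C on medium lacking adenine and uracil.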

| Substance | amyloid nucleation score |
| --- | --- |
| SWDVAYVSMF | 0.124 ± 0.6 |
| SWGMVFLNSRVPWRVMFNSC | 0.154 ± 0.48 |
| SWKIFIRIMTDYSIQFAYSY | 1.88 ± 0.098 |
| SWLDLNLIDHQAFAFSSFGQ | 0.183 ± 0.3 |
| SWMSRKEENSGLILVAVYLV | 1.29 ± 0.76 |
| SWQSVSSAISV | -0.234 ± 0.85 |
| SWTTARLNRSRSIFKNLRQE | 0.028 ± 0.46 |
| SWWVGTCFSGQWTVLGFP | 0.961 ± 0.69 |
| SWYIKVFRFGLFHWSSGVGW | inactive |
| SYCTGLFWEKRVVIMLVSQV | -0.103 ± 0.53 |
| SYGSKFWEFLHFGESV | -0.179 ± 0.66 |
| SYHNLCGSESGQVVNNQDRM | -0.852 ± 0.51 |
| SYHPLHVCCSSVFRELVIRD | 2.11 ± 0.43 |
| SYHVMNKDYMVYFKNTYKDK | 4.68 ± 0.078 |
| SYICLHYFCIQ | 5.745 ± 0.055 |
| SYIGDCEIFIKEPVGANNLE | -0.909 ± 2.7 |
| SYISLSLISFSVGGSSHFSM | 6.96 ± 0.077 |
| SYMGSNSSYYCMRGWGRTWY | 2.14 ± 0.095 |
| SYMKQINTGKVFRAHYVLLA | 0.117 ± 1.1 |
| SYPKGGLPCGWIRTPPWRFH | 0.42 ± 0.59 |
| SYPSGSP | -0.061 ± 0.96 |
| SYPTKLPWFGGGYNRGSMSS | -0.481 ± 0.58 |
| SYRSVG | 0.25 ± 0.59 |
| SYVPANY | -1.82 ± 1.1 |
| SYVVYCHSAMRRKGSMGRYL | 0.468 ± 0.37 |
| SYYMYLN | -0.19 ± 0.26 |

| Substance | amyloid nucleation score |
| --- | --- |
| TADFLCSINEAFSVFTLLRE | 1.03 ± 0.93 |
| TAPKIFLGGIL | inactive |
| TAVGSRGFPRNHLRPKNTSG | -0.309 ± 0.53 |
| TAVVENCLPIWVVYSSKMY | 0.018 ± 0.6 |
| TCDFAAWICFYISLWVRVKI | -0.382 ± 0.61 |
| TCFMLKWIKQRLIDGSVKGR | 0.512 ± 1.2 |
| TCILDHGPSMGRHSLGALIL | -0.969 ± 1.1 |
| TCMTRTLYIL | -0.092 ± 0.37 |
| TCMWMILLFINR | 0.608 ± 0.27 |
| TCVIFLVLCQALSFPVLALC | 0.095 ± 0.79 |
| TDEGLVCHK | 0.522 ± 0.75 |
| TDEVDDIQF | 0.552 ± 0.59 |
| TDGQWMSYSFSAFASYVVLG | -0.179 ± 0.58 |
| TDIFCP | -1.47 ± 1.7 |
| TDIHTVHRSNLVKVLRKGMN | -0.411 ± 0.53 |
| TDLFYMMCSRRQTYVCNLVR | 0.456 ± 0.43 |
| TDNMWCSNVIFLECTN | 4.07 ± 0.12 |
| TDYSFKLFTFFSSESNGFPI | -1.01 ± 1 |
| TEELYTGVTFL | -1.93 ± 1.5 |
| TEGFNTANA | -0.34 ± 1.1 |
| TELGVSPIAKRRNSVLDHAL | -0.449 ± 1.1 |
| TELSEHVRSRLWSKG | 0.355 ± 0.42 |
| TENVLLTYVFYAKSRLGSVV | 0.921 ± 0.56 |
| TETLADVLALERLPGCMKFI | 0.259 ± 0.68 |
| TFFLVLVSPD | 0.059 ± 1.4 |
| TFLNFWPQFCMEFY | 5.98 ± 0.06 |

| Substance | amyloid nucleation score |
| --- | --- |
| TFNVVNPMVTYN | -0.776 ± 0.3 |
| TFQGARYYYWPAVF | 1.33 ± 0.63 |
| TFSHWPLWNVYRSFAFTCRP | 0.871 ± 0.47 |
| TFSQWWVRSCFGTRMNWCLV | 0.174 ± 1.2 |
| TFTFVFW | 3.46 ± 0.13 |
| TFVVELS | -1.64 ± 2.4 |
| TFYRLSISVVSLNMVIHPGP | 1.5 ± 0.2 |
| TGASLLVAHRTYSEIILRCD | 0.606 ± 0.49 |
| TGATATYKFFIFFIL | 1.28 ± 0.22 |
| TGCGERWGQSMVIGVSL | -0.102 ± 0.62 |
| TGEPKRS | 1.58 ± 0.49 |
| TGKNSC | 3.44 ± 0.099 |
| TGNYDYVSFNQRKLHGCFNQ | -0.652 ± 0.93 |
| TGRCR | inactive |
| TGRYISDYCVIKAYVYSICD | -0.135 ± 0.39 |
| TGTSSPMRPLH | 0.532 ± 0.69 |
| TGVCTGECWYRGLVQSCSGA | -0.239 ± 0.53 |
| THCVSLLGIYFFSSWVMIVR | -0.266 ± 0.4 |
| THFRCH | 0.762 ± 0.8 |
| THNSLFSHVSWYRCVSSGVF | 0.304 ± 1.1 |
| TIECFYGVVSFRHNQYYGAQ | 2.16 ± 0.17 |
| TIFLQALGYSRWLLEISMDR | -1.06 ± 0.96 |
| TIFVPGALVDFAAGGTHQLI | -0.088 ± 1.3 |
| TIFVYSKTNL | 2.64 ± 0.18 |
| TITIVVRYVETRCGNIRDVE | 0.794 ± 0.45 |
| TIVFMRAHIFW | 0.788 ± 0.25 |

| Substance | amyloid nucleation score |
| --- | --- |
| TIVRGSNYRPPVWPSDY | -0.535 ± 1.1 |
| TIWDSRTSFVYS | 0.254 ± 0.56 |
| TIYISVSNRSVDSKDMGYGS | inactive |
| TKDRFYEC | 0.419 ± 0.58 |
| TKYCFPFNFQGSLHQWRRRF | 0.972 ± 0.52 |
| TLHTKSGLNIMARYPMAERG | 1.31 ± 0.8 |
| TLITWTLVSVGIWTMQS | 1.56 ± 0.53 |
| TLKHLNATISHT | 1.1 ± 0.71 |
| TLLYPYMVPLRRKSLWGAVR | 1.36 ± 0.35 |
| TLNSPECDPNLSLML | -0.555 ± 1.1 |
| TLRLSFCRYMAFWHCNRSMA | -1.14 ± 1.1 |
| TLRMGESCFKWWYQIFIQLF | 0.275 ± 0.93 |
| TLRYKNT | 0.371 ± 0.76 |
| TLSPTAGPAVVALILYGSLT | 1.17 ± 0.65 |
| TLSRFPLAALNLVRVR | 0.3 ± 0.86 |
| TLSTVTG | 0.357 ± 0.37 |
| TLTRYC | -0.086 ± 1.2 |
| TLTSRVENKFRMVIL | 3.46 ± 0.088 |
| TLVIVTFFMIFIGMVSVFYR | 1.27 ± 0.25 |
| TMDDYPLDLHCWAGS | 0.767 ± 1 |
| TMFHLWNFGCVALVR | -0.104 ± 0.34 |
| TMQFFHERGYLLKSRYAGAW | -0.273 ± 0.98 |
| TMSASLNYLTLVMN | 0.129 ± 0.59 |
| TMTFPKVLWPCGLVRNFCST | -0.294 ± 0.67 |
| TMTVSFPRLEKCTSK | 0.169 ± 0.35 |
| TMYPLIRLYGSMSRNETGEW | 0.437 ± 0.33 |

| Substance | amyloid nucleation score |
| --- | --- |
| TMYSVYRFVGCKKSFMVRKG | 0.454 ± 0.4 |
| TNFFGSPCAMCNFSLDICSK | 8.038 ± 0.057 |
| TNFYAVFLLLGGSGF | 7.171 ± 0.051 |
| TNILLLHFSDHEFGLEFRYL | 1.68 ± 0.17 |
| TNPLDPLLCNVYQVLDMPCM | 0.497 ± 0.58 |
| TNRPAPLPSYRTILCK | 0.7 ± 0.97 |
| TNSCNLELAVICMSSYWG | 4.71 ± 0.069 |
| TNVKQQACRLRSS | 4.83 ± 0.063 |
| TPKLIAV | -2.05 ± 1.9 |
| TPRYVLLVC | -0.983 ± 2.4 |
| TQMMDALFLSAL | 0.935 ± 0.79 |
| TQMNR | -0.89 ± 0.51 |
| TRALSFN | -0.873 ± 1.6 |
| TRHGLGRFVHSRTVVFIGIW | -0.642 ± 0.82 |
| TRNFKQK | -1.78 ± 1.8 |
| TRQRKDGYADRMQYNSPLRR | 0.342 ± 0.6 |
| TRRYWV | -0.679 ± 0.32 |
| TRTNLVAPCIMEVLSNVHRY | inactive |
| TRTPAWGWFPQST | -0.105 ± 0.81 |
| TRTRLEHNSVRKFWEL | inactive |
| TRTTKMAH | 1.24 ± 0.45 |
| TRVFSCDACRKN | inactive |
| TSASVGLVMWTTWMRNQG | 3.75 ± 0.087 |
| TSGLENVSIVNGLPGLDSLV | 0.11 ± 0.99 |
| TSGLSGSESKESTDKCCIEC | 0.713 ± 0.92 |
| TSGSRVRRRWGMLVCRNRSR | -1.25 ± 2.4 |

| Substance | amyloid nucleation score |
| --- | --- |
| TSGWRYGYSSYHYRTLNGFV | -0.35 ± 0.47 |
| TSHPFLLQFMDDPFELSLAQ | -0.714 ± 0.48 |
| TSHPGRCRGYASRASSEVFR | -0.038 ± 0.43 |
| TSHSGIEFRLEFARSSPPSQ | -0.161 ± 0.66 |
| TSKGCQ | inactive |
| TSMVNI | 0.084 ± 0.88 |
| TSMWTYY | 0.298 ± 0.33 |
| TSNIRVLGHAMVNWVCWGRD | 3.18 ± 0.18 |
| TSPDYPRRYVQMSRR | 0.507 ± 0.52 |
| TSPGRYFCRLHVLHSGM | -0.468 ± 1.9 |
| TSQENTDINGPCKLTSVLQR | 0.436 ± 0.68 |
| TSRGGLFYSGVLICAGGIRM | -0.032 ± 0.54 |
| TSTVG | inactive |
| TSVSKLQHWIYFTFY | -0.834 ± 1.4 |
| TSYTNAVFESNFA | -0.426 ± 0.3 |
| TTFFYYSEGKIR | -0.657 ± 0.51 |
| TTPGALSSRTMSMPDVLGIE | 1.37 ± 0.5 |
| TTTCMRYGLIVC | 1.7 ± 0.52 |
| TVASRFEFYTKDWAYRNGRL | 1.76 ± 0.33 |
| TVEGSRYFRSSLYHSARSHW | 1.14 ± 0.55 |
| TVFDSLC | 0.372 ± 1.2 |
| TVFFCNWVEPYDFNICR | 6.763 ± 0.059 |
| TVFFPFLTNSRGDRLRDCWM | -0.65 ± 1.1 |
| TVIRESIPKFWFYTLGMLKV | -0.6 ± 0.35 |
| TVIRSVIIPITPPIIR | 1.57 ± 0.56 |
| TVITFRLAT | 1.69 ± 0.26 |

| Substance | amyloid nucleation score |
| --- | --- |
| TVKHC | 3.17 ± 0.14 |
| TVLVT | -0.461 ± 0.48 |
| TVLYPGPGAVS | 0.155 ± 0.73 |
| TVMFCRQWVFNCVFFIDIVK | 1.31 ± 0.1 |
| TVNRMIFFMRLLYTRVKL | -1.68 ± 2.7 |
| TVPIRTTTLSNGAFVWLI | inactive |
| TVSIGDVTRFVMAVASTTF | 0.18 ± 1.1 |
| TWGSGY | -0.797 ± 0.93 |
| TWNKCKVADSLFMTRIIMVL | 0.305 ± 0.41 |
| TWQNRTSLIEVTSYMFHGWV | 0.294 ± 0.59 |
| TYDQTRMTVHRSSSIERART | 0.173 ± 1.4 |
| TYFFKLNP | -1.07 ± 1.4 |
| TYFSDLVRRRRCKAGNVWFL | 1.58 ± 0.74 |
| TYFSISQLLGFFQSVGPYVF | 0.108 ± 0.56 |
| TYNRGMGGRISVFCLFTGVM | 0.078 ± 0.21 |
| TYRDKNNVRFKRFLGKRTAC | -1.22 ± 0.99 |
| TYRLH | -0.57 ± 0.55 |
| TYSKSVCWAHHHSYTGVCLT | 0.127 ± 0.52 |
| TYSSARDSS | -0.209 ± 0.63 |
| TYYGVSPDTASNAACLYPRH | -0.746 ± 1.9 |
| TYYKQYVLMYRALNFAGSWS | 1.21 ± 0.79 |
